Assay results reported in patent US20220332804A1 (CSL INNOVATION, published 2022).

Legend:
Assay in all cases: SPR, KD relative to WT C2;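 note: biacore SPR at 37 °C, anti-C2 mAbs captured via immobilised goat anti-human IgG, C2 alanine or serine surface mutants as analytes, 1:1 model fitted, double-referenced sensograms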
human C2 N403A = target: T1, human C2 N403A (human, UniProt P06681 21-752)
T1 sequence: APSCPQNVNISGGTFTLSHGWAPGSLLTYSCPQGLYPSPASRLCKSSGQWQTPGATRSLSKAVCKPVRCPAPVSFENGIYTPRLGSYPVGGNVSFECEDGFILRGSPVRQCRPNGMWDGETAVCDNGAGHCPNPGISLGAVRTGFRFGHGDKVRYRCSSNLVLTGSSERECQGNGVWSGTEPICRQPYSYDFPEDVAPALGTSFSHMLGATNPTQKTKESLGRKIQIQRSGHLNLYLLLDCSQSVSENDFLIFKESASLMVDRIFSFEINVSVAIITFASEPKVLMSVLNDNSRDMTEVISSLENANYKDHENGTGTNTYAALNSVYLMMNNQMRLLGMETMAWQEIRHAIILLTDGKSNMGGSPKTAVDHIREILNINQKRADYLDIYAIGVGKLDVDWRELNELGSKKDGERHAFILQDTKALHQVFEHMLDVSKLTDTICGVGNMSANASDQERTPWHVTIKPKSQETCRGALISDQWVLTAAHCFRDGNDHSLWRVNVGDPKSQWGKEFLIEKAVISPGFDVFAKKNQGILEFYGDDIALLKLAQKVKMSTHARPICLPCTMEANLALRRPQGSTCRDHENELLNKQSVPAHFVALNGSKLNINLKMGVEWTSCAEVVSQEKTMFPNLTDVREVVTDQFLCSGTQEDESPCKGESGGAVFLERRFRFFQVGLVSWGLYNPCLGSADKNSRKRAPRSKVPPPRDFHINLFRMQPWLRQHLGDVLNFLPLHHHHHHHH
Protocol: (§1) Surface plasmon resonance (SPR, Biacore) was used for all binding affinity analyses. In brief, goat anti-human IgG was directly immobilised onto the carboxymethyl dextran surface of CM5 sensorchips to approximately 12,000 RU using standard NHS/EDC chemistry at pH 5. The immobilised antibody surface was pre-conditioned with ten injections of polyclonal human IgG (Privigen 60 s) prepared at 1 μg/mL. Ligands (anti-C2 mAbs) were captured at the beginning of each cycle as described below. An adjacent spot or flow cell in which only Polyclonal IgG was capture was used as a reference surface. The goat anti-human IgG Fc antibody surface was regenerate in 100 mM H3PO4, injected for 45 seconds at the end of each cycle. Experiments were performed at 37° C. and the flow rate of each experiment was kept constant at 30 μL/min.
(§2) Sensogram data was double-referenced against a reference anti-IgG surface (i.e. minus anti-C2 mAb) and blank buffer injections obtained within each experiment. The binding data was fit to 1:1 (kinetic or steady-state) model using local Rmax and null refraction index (RI=0) when appropriate. Buffers and solutions were filtered (0.22 μm) prior to use.

human C2 F437A = target: T2, human C2 F437A (human, UniProt P06681 21-752)
T2 sequence: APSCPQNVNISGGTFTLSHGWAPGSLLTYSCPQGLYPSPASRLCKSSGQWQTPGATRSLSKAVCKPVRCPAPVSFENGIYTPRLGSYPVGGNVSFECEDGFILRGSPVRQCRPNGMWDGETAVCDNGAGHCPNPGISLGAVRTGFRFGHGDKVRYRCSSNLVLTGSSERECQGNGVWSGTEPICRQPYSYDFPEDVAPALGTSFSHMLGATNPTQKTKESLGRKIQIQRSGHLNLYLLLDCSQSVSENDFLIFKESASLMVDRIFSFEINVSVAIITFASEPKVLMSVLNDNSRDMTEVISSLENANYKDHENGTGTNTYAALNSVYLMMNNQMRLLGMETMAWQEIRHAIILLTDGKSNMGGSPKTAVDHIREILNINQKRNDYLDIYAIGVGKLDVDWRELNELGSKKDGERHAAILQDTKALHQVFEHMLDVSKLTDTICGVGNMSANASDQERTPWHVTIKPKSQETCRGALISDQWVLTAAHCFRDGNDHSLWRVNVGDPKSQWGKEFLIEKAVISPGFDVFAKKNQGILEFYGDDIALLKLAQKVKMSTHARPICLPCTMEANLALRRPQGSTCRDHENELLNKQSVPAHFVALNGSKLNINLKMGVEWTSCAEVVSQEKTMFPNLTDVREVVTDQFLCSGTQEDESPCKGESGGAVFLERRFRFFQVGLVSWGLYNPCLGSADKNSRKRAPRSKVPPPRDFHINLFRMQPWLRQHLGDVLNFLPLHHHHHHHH
Protocol: as §1, §2

human C2 N327A = target: T3, human C2 N327A (human, UniProt P06681 21-752)
T3 sequence: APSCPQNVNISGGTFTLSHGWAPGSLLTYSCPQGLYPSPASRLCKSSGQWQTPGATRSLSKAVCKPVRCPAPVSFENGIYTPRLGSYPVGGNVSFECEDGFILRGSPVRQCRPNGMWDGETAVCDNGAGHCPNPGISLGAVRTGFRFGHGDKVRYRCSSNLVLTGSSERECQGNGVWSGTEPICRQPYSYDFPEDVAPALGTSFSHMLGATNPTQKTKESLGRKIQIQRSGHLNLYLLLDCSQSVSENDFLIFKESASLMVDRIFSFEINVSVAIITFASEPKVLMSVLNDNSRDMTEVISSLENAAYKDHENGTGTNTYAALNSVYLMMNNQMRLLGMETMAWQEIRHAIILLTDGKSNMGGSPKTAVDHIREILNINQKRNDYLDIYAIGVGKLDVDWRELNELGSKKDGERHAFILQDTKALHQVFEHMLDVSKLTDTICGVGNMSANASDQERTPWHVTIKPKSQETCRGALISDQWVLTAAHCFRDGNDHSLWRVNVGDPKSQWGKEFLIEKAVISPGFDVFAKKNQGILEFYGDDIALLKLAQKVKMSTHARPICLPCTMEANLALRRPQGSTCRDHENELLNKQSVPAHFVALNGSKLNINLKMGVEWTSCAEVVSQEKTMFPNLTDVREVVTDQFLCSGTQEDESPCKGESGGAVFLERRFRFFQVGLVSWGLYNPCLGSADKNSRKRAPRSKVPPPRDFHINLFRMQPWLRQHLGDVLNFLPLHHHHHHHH
Protocol: as §1, §2

human C2 E490A = target: T4, human C2 E490A (human, UniProt P06681 21-752)
T4 sequence: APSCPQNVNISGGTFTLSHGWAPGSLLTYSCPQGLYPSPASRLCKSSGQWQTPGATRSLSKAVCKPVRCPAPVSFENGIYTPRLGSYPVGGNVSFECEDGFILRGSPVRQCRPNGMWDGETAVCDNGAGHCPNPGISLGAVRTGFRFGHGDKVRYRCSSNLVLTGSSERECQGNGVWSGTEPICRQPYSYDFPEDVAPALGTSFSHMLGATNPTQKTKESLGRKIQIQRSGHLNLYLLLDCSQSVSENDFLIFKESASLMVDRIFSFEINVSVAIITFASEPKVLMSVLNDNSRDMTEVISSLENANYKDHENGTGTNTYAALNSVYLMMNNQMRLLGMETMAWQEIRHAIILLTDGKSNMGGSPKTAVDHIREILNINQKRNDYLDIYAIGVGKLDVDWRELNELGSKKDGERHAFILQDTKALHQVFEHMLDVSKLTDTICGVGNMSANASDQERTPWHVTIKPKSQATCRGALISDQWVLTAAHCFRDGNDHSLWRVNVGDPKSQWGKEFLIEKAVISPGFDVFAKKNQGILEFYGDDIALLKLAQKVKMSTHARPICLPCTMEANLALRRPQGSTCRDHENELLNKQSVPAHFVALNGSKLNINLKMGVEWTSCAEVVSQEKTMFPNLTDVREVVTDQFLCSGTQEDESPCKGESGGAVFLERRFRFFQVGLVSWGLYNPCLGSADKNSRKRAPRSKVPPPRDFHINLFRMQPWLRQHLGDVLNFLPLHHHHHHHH
Protocol: as §1, §2

B1: RF16-226 (antibody, human IgG4 S228P, lambda)
heavy: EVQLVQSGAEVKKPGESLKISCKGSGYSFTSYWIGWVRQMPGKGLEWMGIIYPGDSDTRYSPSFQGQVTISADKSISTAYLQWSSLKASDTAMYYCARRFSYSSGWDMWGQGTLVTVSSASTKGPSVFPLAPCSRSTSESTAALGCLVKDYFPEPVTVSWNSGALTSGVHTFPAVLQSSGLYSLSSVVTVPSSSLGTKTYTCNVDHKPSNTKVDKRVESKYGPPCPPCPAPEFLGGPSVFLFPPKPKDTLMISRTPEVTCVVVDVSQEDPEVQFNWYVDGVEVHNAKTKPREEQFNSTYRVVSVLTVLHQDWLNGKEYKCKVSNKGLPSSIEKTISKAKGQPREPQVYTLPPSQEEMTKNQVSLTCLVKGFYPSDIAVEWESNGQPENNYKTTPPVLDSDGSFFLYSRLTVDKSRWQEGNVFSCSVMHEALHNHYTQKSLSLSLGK
light: SYELTQPPSVSVSPGQTARITCSGDALTSKYVAWYQQKSGLAPLLVIYEDTRRPSGIPAKFSGSSSGSVATLTISGAHGDDEADYYCYSTDASGHQRVFGGGTKLTVLSQPKAAPSVTLFPPSSEELQANKATLVCLISDFYPGAVTVAWKADGSPVKAGVETTKPSKQSNNKYAASSYLSLTPEQWKSHRSYSCQVTHEGSTVEKTVAPTECS
notes: pH-dependent anti-C2 antibody from a phage display library; also called WT
- Fold diff (human C2 N403A): 1 fold
- Fold diff (human C2 F437A): 26 fold
- Fold diff (human C2 N327A): 7 fold
- Fold diff (human C2 E490A): 2 fold
